The data set “SEC-MALS” concerns the molecule itself. The experiment in a line: SEC-MALS.
The data set “cryo-EM structure” concerns the molecule itself. The experiment in a line: cryo-EM structure.

Values joined by “and” are separate entries in the source; they are usually repeats but may differ in a detail not shown here. Identical values can stand only once.

The values that follow come from paper PMC9371709 (Proceedings of the National Academy of Sciences of the …, 2022).

B1: human Twinkle helicase W315L (C-terminal his-tag Δ42, FL residues 43–684) (enzyme, UniProt Q96RR1 43-684, looked up)
chain: ETLQALDMPVLPVTATEIRQYLRGHGIPFQDGHSCLRALSPFAESSQLKGQTGVTTSFSLFIDKTTGHFLCMTSLAEGSWEDFQASVEGRGDGAREGFLLSKAPEFEDSEEVRRIWNRAIPLWELPDQEEVQLADTMFGLTKVTDDTLKRFSVRYLRPARSLVFPWFSPGGSGLRGLKLLEAKCQGDGVSYEETTIPRPSAYHNLFGLPLISRRDAEVVLTSRELDSLALNQSTGLPTLTLPRGTTCLPPALLPYLEQFRRIVFWLGDDLRSLEAAKLFARKLNPKRCFLVRPGDQQPRPLEALNGGFNLSRILRTALPAWHKSIVSFRQLREEVLGELSNVEQAAGLRWSRFPDLNRILKGHRKGELTVFTGPTGSGKTTFISEYALDLCSQGVNTLWGSFEISNVRLARVMLTQFAEGRLEDQLDKYDHWADRFEDLPLYFMTFHGQQSIRTVIDTMQHAVYVYDICHVIIDNLQFMMGHEQLSTDRIAAQDYIIGVFRKFATDNNCHVTLVIHPRKEDDDKELQTASIFGSAKASQEADNVLILQDRKLVTGPGKRYLQVSKNRFDGDVGVFPLEFNKNSLTFSIPPKNKARLKKIKDDTGPVAKKPSSGKKGATTQNSEICSGQAPTPDQPDTSKRSK
Consider B1, for which the “stoichiometry N” value in “SEC-MALS” is about 8; in “cryo-EM structure” it was 7 and 8.
